The values below come from US9844546B2, “Antibody against human HIF hydroxylase” (OXFORD UNIVERSITY INNOVATION LIMITED, priority 2001, dated 2017).

“Also recorded” adds a separate entry of the source.

The assay concerns the target T1, HIF-1α/pVHL interaction (Homo sapiens, UniProt P40337).
T1 construct: made in house; host or cells: TNT rabbit reticulocyte lysate (Promega), in vitro transcription/translation
Briefly: Polypeptide blocking assay of HIF-1α and pVHL.HA IVTT mixture, anti-HA immunoprecipitation. Format: binding. The method, then:
Further studies were performed using synthetic polypeptides as inhibitors of the HIF-1α/pVHL interaction (23). […] Results for a series of polypeptides derived from this domain are summarized in FIG. 1B and implicate a similar minimal interaction domain. […] This polypeptide comprises HIF-1α polypeptide residues 556 to 574 and its ability to block binding following exposure to a variety of direct oxidation conditions was assessed.
We synthesized a polypeptide (HIF-1α residues 556-574), containing a trans-4-hydroxy-S-proline residue at position 564 (19:Pro564Hyp), since the trans-4-hydroxylation is the commonest enzymatic proline oxidation (25). A polypeptide blocking assay was carried out using the 19:Pro564Hyp modified polypeptide and, as a control, the unmodified polypeptide without the trans-4-hydroxylation (19:WT). The 19:WT polypeptide was either incubated with cell extract before the binding assay or was untreated. The 19:Pro564Hyp polypeptide was added to a mixture of HIF-1α and pVHL-HA IVTTs at a concentration of 1, 0.25, 0.05 or 0.01 μM and the cell extract treated or untreated 19:WT polypeptide at a concentration of 0.5 μM. Interaction of HIF-1α with pVHL was then assayed by anti-HA immunoprecipitation. […] A pVHL capture assay was then carried out using biotinylated synthetic polypeptides. The same polypeptides, 19:Pro564Hyp and 19:WT were assessed for the ability to capture wild type or mutant (Pro86His) pVHL. […] In both cases capture was specific for wild type, as opposed to mutant, pVHL.
• 1. G. L. Semenza, Genes Dev 14, 1983-91. (2000). • 2. N. V. Iyer, et al., Genes Dev. 12, 149-162 (1997). • 3. E. Maltepe, J. V. Schmidt, D. Baunoch, C. A. Bradfield, M. C. Simon, Nature 386, 403-407 (1997). • 4. G. L. Wang, B.-H. Jiang, E. A. Rue, G. L. Semenza, Proc. Natl. Acad. Sci. USA 92, 5510-5514 (1995). • 5. S. Salceda, J. Caro, J. Biol. Chem. 272, 22642-22647 (1997). • 6. L. E. Huang, J. Gu, M. Schau, H. F. Bunn, Proc. Natl. Acad. Sci. USA 95, 7987-7992 (1998). • 7. M. S. Wiesener, et al., Blood 92, 2260-2268 (1998). • 8. P. H. Maxwell, et al., Nature 399, 271-275 (1999). • 9. K. Iwai, et al., Proc. Natl. Acad. Sci. USA 96, 12436-12441 (1999). • 10. J. Lisztwan, G. Imbert, C. Wirbelauer, M. Gstaiger, W. Krek, Genes Dev 13, 1822-33 (1999). • 11. M. E. Cockman, et al., J Biol Chem (2000). • 12. M. Ohh, et al., Nat Cell Biol 2, 423-7. (2000). • 13. T. Kamura, et al., Proc Natl Acad Sci USA 97, 10430-5. (2000). • 14. K. Tanimoto, Y. Makino, T. Pereira, L. Poellinger, Embo J 19, 4298-309. (2000). • 15. M. A. Goldberg, S. P. Dunning, H. F. Bunn, Science 242, 1412-1415 (1988). • 16. G. L. Wang, G. L. Semenza, Blood 82, 3610-3615 (1993). • 17. G. L. Semenza, Cell 98, 281-284 (1999). • 18. Hypoxia (<0.1% oxygen) was obtained in a workstation with O2, CO2 and temperature control (Ruskinn Technologies, Leeds, UK). For hypoxic harvest, buffers were preincubated in the chamber overnight. RCC4-VHL.HA, labelling conditions and co-immunoprecipitation assays have been described previously (11); in the current study 12.5 μM MG132 was used for proteasomal inhibition. For standard harvest, the cells were removed from the chamber after hypoxic exposure, prior to cell lysis. Co-immunoprecipitation assays on all lysates were performed at 4° C. under ambient oxygen conditions. […] When programming in hypoxia, reaction mix was preincubated in the workstation for 10 minutes before addition of the DNA template. […]

T1 sequence (P40337 whole entry): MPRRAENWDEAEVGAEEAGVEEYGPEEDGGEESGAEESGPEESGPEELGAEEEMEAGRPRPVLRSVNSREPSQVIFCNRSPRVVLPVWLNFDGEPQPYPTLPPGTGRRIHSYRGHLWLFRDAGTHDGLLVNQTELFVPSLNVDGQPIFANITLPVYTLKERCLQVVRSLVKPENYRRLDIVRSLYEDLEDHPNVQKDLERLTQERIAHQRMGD

In the case of “19:Pro564Hyp: polypeptide (HIF-1α residues 556-574) containing a trans-4-hydroxy-S-proline residue at position 564”, where the note is “untreated polypeptide”, the “blocking of HIF-1α/pVHL interaction by polypeptide not exposed to cell extract” value is recorded as “highly effective at inhibiting the HIF-1α/pVHL interaction; also recorded: blocked the HIF-1α/pVHL interaction without the need for exposure to cell extract”.

As to “19:WT: polypeptide comprising HIF-1α residues 556 to 574”, the “blocking of HIF-1α/pVHL interaction by polypeptide after exposure to cell extract” value (cell extract supplemented with Fe(II)) is “blocking activity”.
